Laboratory results taken from patent US20250043002A1 (Regeneron, published 2025).

Assays:
[1] = target: T1, human CD28 on cells (endogenous on Jurkat/NFkB-Luc cells; human primary CD4+ T cells) (human, UniProt P10747 19-220); experiment: cell-based or functional assay
[2] = target: T1, human CD28 on cells (endogenous on …); experiment: cell-based or functional assay; remark: listed apart in the source
[3] = target: T1, human CD28 on cells (endogenous on …); experiment: flow cytometry, Jurkat/NFkB-Luc cells (endogenous CD28); EC50 NC
[4] = target: human CD28 expressed with a C-terminal murine Fc tag (hCD28.mFc) (human); experiment: SPR Biacore 25 C, hCD28.mFc captured by anti-mFc, antibody injected
[5] = target: T2, human PD-L1 expressed on cells (HEK293/hCD20/hPSMA/hPD-L1; WSU-DLCL2/hPD-L1) (human, UniProt Q9NZQ7 19-290); experiment: cell-based or functional assay
[6] = target: T2, human PD-L1 expressed on cells …; experiment: flow cytometry, HEK293/hCD20/hPSMA/hPD-L1 cells
[7] = target: T1, human CD28 on cells (endogenous on …); experiment: flow cytometry, Jurkat/NFkB-Luc cells (endogenous CD28)
[8] = target: T3, hPD-L1-mFc: hPD-L1 extracellular domain (amino acids F19-T239) expressed with the Fc portion of mouse IgG2a … (human; mouse, UniProt Q9NZQ7 19-239); experiment: blocking ELISA, 0.7 nM hPD-L1-mFc on plate-coated hPD1-hFc
T3 construct: range 19-239; not shown: Fc portion of mouse IgG2a, amino acids E98-K330

[9] = target: human PD-L1 expressed with a C-terminal myc-myc-hexahistidine tag (hPD-L1.mmH) (human); experiment: SPR Biacore 25 C, antibody captured by anti-hFc, hPD-L1.mmH injected
Chain of human PD-L1 expressed with a C-terminal myc-myc-hexahistidine tag (hPD-L1.mmH) (human) (chain, as listed by the source limits assumed): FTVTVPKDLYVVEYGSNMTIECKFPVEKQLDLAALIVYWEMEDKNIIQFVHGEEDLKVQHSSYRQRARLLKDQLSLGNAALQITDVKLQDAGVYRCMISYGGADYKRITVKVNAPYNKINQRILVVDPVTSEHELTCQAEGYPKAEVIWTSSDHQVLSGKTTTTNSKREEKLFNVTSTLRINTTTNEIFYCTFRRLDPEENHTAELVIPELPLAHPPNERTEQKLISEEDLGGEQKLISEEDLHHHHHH

T3 sequence (Q9NZQ7 19-239 limits assumed): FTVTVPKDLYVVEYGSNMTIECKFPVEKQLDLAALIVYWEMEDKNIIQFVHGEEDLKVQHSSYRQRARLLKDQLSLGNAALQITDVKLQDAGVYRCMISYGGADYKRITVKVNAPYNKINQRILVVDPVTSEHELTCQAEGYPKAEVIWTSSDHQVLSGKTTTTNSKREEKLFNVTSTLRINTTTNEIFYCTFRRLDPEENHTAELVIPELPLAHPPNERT
T2 sequence (Q9NZQ7 19-290): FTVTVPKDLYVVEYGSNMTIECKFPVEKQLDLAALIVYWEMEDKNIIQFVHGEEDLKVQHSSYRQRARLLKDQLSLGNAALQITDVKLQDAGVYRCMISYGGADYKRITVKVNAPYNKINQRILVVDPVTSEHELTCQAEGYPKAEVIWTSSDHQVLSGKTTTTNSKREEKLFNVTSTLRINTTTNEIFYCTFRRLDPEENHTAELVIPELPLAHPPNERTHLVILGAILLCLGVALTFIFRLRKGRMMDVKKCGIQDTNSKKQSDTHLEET

B1: mAb9373 (antibody, V domains shown)
VH: QVQLVQSGTEVKKPGASVKVSCKASGYTFTAYYMHWVRQAPGQGLDWMGWISPNSGFTNYAQKFQGRVTMTRDTSINTFYMELSGLRSDDTAVYYCAREGSTHHNSFDPWGQGTLVTVSS
VL: not shown
notes: Bivalent parental antibody; also called parental bivalent anti-PD-L1 antibody; PD-L1 bivalent control antibody
[1]
  NFkB-luciferase MAX (RLU), Jurkat/NFkB-Luc + HEK293/hCD20/hPSMA: 11000 RLU
  NFkB-luciferase MAX (RLU), Jurkat/NFkB-Luc + HEK293/hCD20/hPSMA + CD20×CD3: 181000 RLU
  NFkB-luciferase MAX (RLU), Jurkat/NFkB-Luc + HEK293/hCD20/hPSMA/hPD-L1: 11100 RLU
  NFkB-luciferase MAX (RLU), Jurkat/NFkB-Luc + HEK293/hCD20/hPSMA/hPD-L1 + CD20×CD3: 155000 RLU
[2]
  IL2 release MAX (RLU), CD4+ T cells + HEK293/hCD20/hPSMA: 4530 RLU
  IL2 release MAX (RLU), CD4+ T cells + HEK293/hCD20/hPSMA + CD20×CD3: 9080 RLU
  IL2 release MAX (RLU), CD4+ T cells + HEK293/hCD20/hPSMA/hPD-L1: 3640 RLU
  IL2 release MAX (RLU), CD4+ T cells + HEK293/hCD20/hPSMA/hPD-L1 + CD20×CD3: 6960 RLU
[3]
  Fold Change (max MFI over secondary antibody alone): 5.2 fold
[4]
  90 nM mAb Bind (RU): -1.3 RU

B2: REGN6193 (bispecific antibody, human IgG4 S228P, kappa)
heavy 1: EVQLVESGGGLVQPGRSLRLSCAASGFTFDDYALHWVRQAPGKGLEWVSGISWTGGTIDYADSVKGRFTISRDNAKNSLYLQMSSLRTEDTAIYYCTRDIRGNWKYGGWFDPWGQGTLVTVSSASTKGPSVFPLAPCSRSTSESTAALGCLVKDYFPEPVTVSWNSGALTSGVHTFPAVLQSSGLYSLSSVVTVPSSSLGTKTYTCNVDHKPSNTKVDKRVESKYGPPCPPCPAPPVAGPSVFLFPPKPKDTLMISRTPEVTCVVVDVSQEDPEVQFNWYVDGVEVHNAKTKPREEQFNSTYRVVSVLTVLHQDWLNGKEYKCKVSNKGLPSSIEKTISKAKGQPREPQVYTLPPSQEEMTKNQVSLTCLVKGFYPSDIAVEWESNGQPENNYKTTPPVLDSDGSFFLYSRLTVDKSRWQEGNVFSCSVMHEALHNHYTQKSLSLSLGK
heavy 2: EVQLVESGGGLVQPGGSLRLSCAASGFTFSRNNMHWVRQAPGKGLEYVSGISSNGGRTYYADSVKGRFTISRDNSKNTLYLQMGGLRAADMAVYFCTRDDELLSFDYWGQGTLVTVSSASTKGPSVFPLAPCSRSTSESTAALGCLVKDYFPEPVTVSWNSGALTSGVHTFPAVLQSSGLYSLSSVVTVPSSSLGTKTYTCNVDHKPSNTKVDKRVESKYGPPCPPCPAPPVAGPSVFLFPPKPKDTLMISRTPEVTCVVVDVSQEDPEVQFNWYVDGVEVHNAKTKPREEQFNSTYRVVSVLTVLHQDWLNGKEYKCKVSNKGLPSSIEKTISKAKGQPREPQVYTLPPSQEEMTKNQVSLTCLVKGFYPSDIAVEWESNGQPENNYKTTPPVLDSDGSFFLYSRLTVDKSRWQEGNVFSCSVMHEALHNRFTQKSLSLSPGK
light: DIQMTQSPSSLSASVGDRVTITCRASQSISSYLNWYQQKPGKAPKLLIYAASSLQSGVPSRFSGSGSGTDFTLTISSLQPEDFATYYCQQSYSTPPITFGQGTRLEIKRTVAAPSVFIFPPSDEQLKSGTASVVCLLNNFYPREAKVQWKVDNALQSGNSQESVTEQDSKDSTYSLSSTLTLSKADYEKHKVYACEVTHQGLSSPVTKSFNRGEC
notes: common light chain 1-39; also called PD-L1×CD28; anti-PD-L1 × anti-CD28 bispecific antibody
[1]
  NFkB-luciferase EC50, Jurkat/NFkB-Luc + HEK293/hCD20/hPSMA/hPD-L1 + CD20×CD3: 0.413 nM
  NFkB-luciferase MAX (RLU), Jurkat/NFkB-Luc + HEK293/hCD20/hPSMA: 14200 RLU
  NFkB-luciferase MAX (RLU), Jurkat/NFkB-Luc + HEK293/hCD20/hPSMA + CD20×CD3: 217000 RLU
  NFkB-luciferase MAX (RLU), Jurkat/NFkB-Luc + HEK293/hCD20/hPSMA/hPD-L1: 19500 RLU
  NFkB-luciferase MAX (RLU), Jurkat/NFkB-Luc + HEK293/hCD20/hPSMA/hPD-L1 + CD20×CD3: 2.73e+06 RLU
[2]
  IL2 release EC50, CD4+ T cells + HEK293/hCD20/hPSMA/hPD-L1 + CD20×CD3: 0.144 nM
  IL2 release MAX (RLU), CD4+ T cells + HEK293/hCD20/hPSMA: 4250 RLU
  IL2 release MAX (RLU), CD4+ T cells + HEK293/hCD20/hPSMA + CD20×CD3: 12600 RLU
  IL2 release MAX (RLU), CD4+ T cells + HEK293/hCD20/hPSMA/hPD-L1: 2760 RLU
  IL2 release MAX (RLU), CD4+ T cells + HEK293/hCD20/hPSMA/hPD-L1 + CD20×CD3: 141000 RLU
[5]
  AP-1 luciferase EC50, WSU-DLCL2/hPD-L1 + Jurkat/AP1-Luc/hPD1: 0.202 nM
  AP-1 luciferase MAX (RLU), WSU-DLCL2/hPD-L1 + Jurkat/AP1-Luc/hPD1: 1.49e+06 RLU
[6]
  EC50: 1.3 nM
  Fold Change (max MFI over secondary antibody alone): 847 fold
  Max gMFI: 1.3e+06 gMFI
[7]
  Fold Change (max MFI over secondary antibody alone): 21.8 fold
  Max gMFI: 9200 gMFI
[8]
  % Blocking at 100 nM mAb: 98%
  IC50: 0.82 nM
[4]
  90 nM mAb Bind (RU): 21.6 RU
  Kd: 46.9 nM
  koff: 0.00168 s⁻¹
  kon: 35900 M⁻¹ s⁻¹
  t1/2: 6.9 min
[9]
  30 nM hPD-L1.mmH Bind (RU): 44.2 RU
  Kd: 0.116 nM
  koff: 6.37e-05 s⁻¹
  kon: 548000 M⁻¹ s⁻¹
  t1/2: 3.02 h

B3: mAb9364 (antibody, V domains shown)
VH: EVQLVESGGGLVQPGRSLRLSCAASGFTFDDYALHWVRQAPGKGLEWVSGISWTGGTIDYADSVKGRFTISRDNAKNSLYLQMSSLRTEDTAIYYCTRDIRGNWKYGGWFDPWGQGTLVTVSS
VL: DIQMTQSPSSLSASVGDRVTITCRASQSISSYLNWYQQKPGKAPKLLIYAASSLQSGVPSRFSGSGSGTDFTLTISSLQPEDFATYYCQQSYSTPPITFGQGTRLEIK
notes: as for B1
[1]
  NFkB-luciferase MAX (RLU), Jurkat/NFkB-Luc + HEK293/hCD20/hPSMA: 44400 RLU
  NFkB-luciferase MAX (RLU), Jurkat/NFkB-Luc + HEK293/hCD20/hPSMA + CD20×CD3: 180000 RLU
  NFkB-luciferase MAX (RLU), Jurkat/NFkB-Luc + HEK293/hCD20/hPSMA/hPD-L1: 57100 RLU
  NFkB-luciferase MAX (RLU), Jurkat/NFkB-Luc + HEK293/hCD20/hPSMA/hPD-L1 + CD20×CD3: 165000 RLU
[2]
  IL2 release MAX (RLU), CD4+ T cells + HEK293/hCD20/hPSMA: 4360 RLU
  IL2 release MAX (RLU), CD4+ T cells + HEK293/hCD20/hPSMA + CD20×CD3: 8980 RLU
  IL2 release MAX (RLU), CD4+ T cells + HEK293/hCD20/hPSMA/hPD-L1: 3680 RLU
  IL2 release MAX (RLU), CD4+ T cells + HEK293/hCD20/hPSMA/hPD-L1 + CD20×CD3: 10900 RLU
[5]
  AP-1 luciferase EC50, WSU-DLCL2/hPD-L1 + Jurkat/AP1-Luc/hPD1: 0.00651 nM
  AP-1 luciferase MAX (RLU), WSU-DLCL2/hPD-L1 + Jurkat/AP1-Luc/hPD1: 1.04e+06 RLU
[6]
  EC50: 0.73 nM
  Fold Change (max MFI over secondary antibody alone): 401 fold
  Max gMFI: 620000 gMFI
[8]
  % Blocking at 100 nM mAb: 99%
  IC50: 0.52 nM
[3]
  Fold Change (max MFI over secondary antibody alone): 4.7 fold
[4]
  90 nM mAb Bind (RU): -0.9 RU
[9]
  30 nM hPD-L1.mmH Bind (RU): 112 RU
  Kd: 0.13 nM
  koff: 7.42e-05 s⁻¹
  kon: 571000 M⁻¹ s⁻¹
  t1/2: 2.59 h
